Results on seven molecules are retold here after patent US20210253724A1 (Hoffmann-La Roche, published 2021).

For orientation: EC50 means the concentration needed to bring the measured effect to its halfway point. What is called IC50 is the midpoint of a concentration-inhibition curve.

The target in test [1] is T1, human FAP on NIH/3T3-huFAP clone 19 cells (human, UniProt Q12884 1-760).
T1 construct: NIH/3T3 cells transfected with a plasmid encoding human FAP
Kind of test: flow cytometry on NIH/3T3-huFAP clone 19 cells. On the technique in general: A flow cytometer gives signals particle by particle.
Experimental: (§1) Plates were incubated for 30 minutes at 4° C. and washed once with 200 μL 4° C. cold DPBS buffer. […] Cells were washed twice with 200 μL 4° C. DPBS buffer and then resuspended in 50 μL/well DPBS containing 1% Formaldehyde for fixation. The same or the next day cells were resuspended in 100 μL FACS-buffer and acquired using MACSQuant Analyzer 10 (Miltenyi Biotec).

Test [2] addresses T1, human FAP on NIH/3T3-huFAP clone 19 …. Kind of test: flow cytometry on NIH/3T3-huFAP clone 19 cells. The source holds these as a separate data set.
Experimental: as §1
The target of test [3] is T2, human 4-1BB (CD137) on Jurkat-hu4-1BB-NFκB-luc2 reporter cells (human, UniProt Q07011 24-255). In words: cell-based or functional assay. Also on record: AUC of NFκB-luciferase activation curve, no FAP+ cells / AUC of NFκB-luciferase activation curve, with WM-266-4 cells: unit not given beside the values.
In test [4] the target is T3, hu4-1BB-SNAP Tb-labeled expressed on transfected Hek cells (human, UniProt Q07011 24-255, Tb (terbium) label on the SNAP tag).
T3 construct: SNAP-tag fusion of human 4-1BB; also called Tb hu4-1BB-SNAP
Kind of test: TR-FRET (TagLite) competition against d2-labeled 20H4.9 IgG1 (0.6 nM), after 4 h. Background: TR-FRET usually uses a lanthanide donor and a delayed reading to cut background.

The target in test [5] is T2, human 4-1BB (CD137) on …. In words: cell-based or functional assay.
The target in test [6] is T2, human 4-1BB (CD137) on …. In words: flow cytometry on Jurkat-hu4-1BB-NFκB-luc2 cells.
Experimental: Plates were incubated for 30 minutes at 4° C. and washed once with 200 μL 4° C. cold DPBS buffer. […] Cells were washed twice with 200 μL 4° C. DPBS buffer and then resuspended in 50 μL/well DPBS containing 1% Formaldehyde for fixation. The same or the next day cells were resuspended in 100 μL FACS-buffer and acquired using MACSQuant Analyzer X (Miltenyi Biotec).
Test [7] has as its target T2, human 4-1BB (CD137) on …. In words: cell-based or functional assay. Also on record: AUC of NFκB-luciferase activation curve, no CEA+ cells / AUC of NFκB-luciferase activation curve, with CHO-k1-cynoCEACAM5 clone 8: unit not given beside the values.
Test [8] addresses T2, human 4-1BB (CD137) on …. In words: cell-based or functional assay. This is another data set of the same source.
In test [9] the target is T4, cynomolgus monkey CEACAM5 on CHO-k1-cynoCEACAM5 clone 8 cells (cynomolgus monkey).
T4 construct: whole, on cells
In words: flow cytometry on CHO-k1-cynoCEACAM5 clone 8. Further details: unit not given beside the values.

A further test addresses T5, human 4-1BB Fc(kih) (human, UniProt P01857 104-328 = IgG part).
T5 construct: Monomeric Fc-linked antigen: 4-1BB ectodomain, AcTEV site, Fc knob and Avi tag, paired with an Fc hole chain; also called hu4-1BB-Fc(kih); human 4-1BB antigen Fc knob chain with Fc hole chain
In words: SPR (Biacore T200), human 4-1BB-Fc(kih) amine-coupled on a CM5 chip, antibody 150 nM as analyte 1. A general note: In SPR one partner is held on a chip, and binding of the other changes the refractive index at the surface.

The target of test [10] is T2, human 4-1BB (CD137) on …. In words: cell-based or functional assay. This is another data set of the same source.

T5 sequence (P01857 other isoform, or with tags, fused parts or gaps limits assumed): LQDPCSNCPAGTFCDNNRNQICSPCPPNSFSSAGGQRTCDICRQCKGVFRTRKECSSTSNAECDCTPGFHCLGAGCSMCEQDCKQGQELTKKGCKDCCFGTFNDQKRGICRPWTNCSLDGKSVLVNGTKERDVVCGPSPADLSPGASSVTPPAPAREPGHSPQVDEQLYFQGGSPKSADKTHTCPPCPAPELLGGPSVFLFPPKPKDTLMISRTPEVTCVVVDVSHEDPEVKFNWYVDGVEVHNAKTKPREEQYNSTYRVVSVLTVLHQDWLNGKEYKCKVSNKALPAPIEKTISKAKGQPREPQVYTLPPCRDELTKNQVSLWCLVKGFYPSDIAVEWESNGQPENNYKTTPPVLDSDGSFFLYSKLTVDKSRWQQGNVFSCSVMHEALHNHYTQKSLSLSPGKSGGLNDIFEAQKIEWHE
Experimental for human 4-1BB Fc(kih): All SPR experiments were performed on a Biacore T200 at 25° C. with HBS-EP as running buffer (0.01 M HEPES pH 7.4, 0.15 M NaCl, 3 mM EDTA, 0.005% Surfactant P20, Biacore, Freiburg/Germany). […] Immobilization level of approx. 900 RU was used.
The dissociation was monitored for 240 sec. Bulk refractive index differences were corrected for by subtracting the response obtained in a reference flow cell, where no protein was immobilized.

B1: 4-1BB (20H4.9)/FAP (4B9) P329GLALA IgG1 2+1 VH/VL (C-terminal) (bispecific antibody)
heavy 1: QVQLQQWGAGLLKPSETLSLTCAVYGGSFSGYYWSWIRQSPEKGLEWIGEINHGGYVTYNPSLESRVTISVDTSKNQFSLKLSSVTAADTAVYYCARDYGPGNYDWYFDLWGRGTLVTVSSASTKGPSVFPLAPSSKSTSGGTAALGCLVKDYFPEPVTVSWNSGALTSGVHTFPAVLQSSGLYSLSSVVTVPSSSLGTQTYICNVNHKPSNTKVDKKVEPKSCDKTHTCPPCPAPEAAGGPSVFLFPPKPKDTLMISRTPEVTCVVVDVSHEDPEVKFNWYVDGVEVHNAKTKPREEQYNSTYRVVSVLTVLHQDWLNGKEYKCKVSNKALGAPIEKTISKAKGQPREPQVCTLPPSRDELTKNQVSLSCAVKGFYPSDIAVEWESNGQPENNYKTTPPVLDSDGSFFLVSKLTVDKSRWQQGNVFSCSVMHEALHNHYTQKSLSLSPGGGGGSGGGGSGGGGSGGGGSEVQLLESGGGLVQPGGSLRLSCAASGFTFSSYAMSWVRQAPGKGLEWVSAIIGSGASTYYADSVKGRFTISRDNSKNTLYLQMNSLRAEDTAVYYCAKGWFGGFNYWGQGTLVTVSS
heavy 2: not shown
light: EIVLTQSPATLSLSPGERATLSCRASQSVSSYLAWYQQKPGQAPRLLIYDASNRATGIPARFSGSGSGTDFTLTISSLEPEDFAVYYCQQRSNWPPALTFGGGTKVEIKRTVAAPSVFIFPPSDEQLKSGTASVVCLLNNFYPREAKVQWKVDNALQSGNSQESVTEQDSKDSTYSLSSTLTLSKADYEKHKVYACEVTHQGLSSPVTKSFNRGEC
notes: Control format: FAP VH and VL fused to the C-termini of the heavy chains; also called 2+1 VH/VL anti-4-1BB (20H4.9)×anti-FAP (4B9) huIgG1 P329GLALA; 2+1 (C-terminal)
Molecule B1 gave an AUC in [1] of 21200. The molecule further had a concentration for a half-maximal effect (EC50) in test [2] of 3.94 nM. Besides, in [3], the “AUC of NFκB-luciferase activation curve, no FAP+ cells” value (from here on “AUC … no FAP+ cells”) turned out to be 4360; the “AUC of NFκB-luciferase activation curve, with NIH/3T3-huFAP clone 19 cells” value (from here on “AUC … with NIH/3T3-huFAP clone 19 cells”) stood at 95100; the “AUC of NFκB-luciferase activation curve, with WM-266-4 cells” value (from here on “AUC … with WM-266-4 cells”) is 30900. In [4], this molecule showed an IC50 of 2.5 nM. For the same molecule, in test [5], the “EC50 of NFκB-luciferase activation curve, with NIH/3T3-huFAP clone 19 cells” value was 0.008 nM and the “EC50 of NFκB-luciferase activation curve, with WM-266-4 cells” value was 0.028 nM.

B2: 2+1 H2H 4-1BB (20H4.9)/FAP (4B9) P329GLALA IgG1 (bispecific antibody)
heavy 1: QVQLQQWGAGLLKPSETLSLTCAVYGGSFSGYYWSWIRQSPEKGLEWIGEINHGGYVTYNPSLESRVTISVDTSKNQFSLKLSSVTAADTAVYYCARDYGPGNYDWYFDLWGRGTLVTVSSASTKGPSVFPLAPSSKSTSGGTAALGCLVEDYFPEPVTVSWNSGALTSGVHTFPAVLQSSGLYSLSSVVTVPSSSLGTQTYICNVNHKPSNTKVDEKVEPKSCDKTHTCPPCPAPEAAGGPSVFLFPPKPKDTLMISRTPEVTCVVVDVSHEDPEVKFNWYVDGVEVHNAKTKPREEQYNSTYRVVSVLTVLHQDWLNGKEYKCKVSNKALGAPIEKTISKAKGQPREPQVCTLPPSRDELTKNQVSLSCAVKGFYPSDIAVEWESNGQPENNYKTTPPVLDSDGSFFLVSKLTVDKSRWQQGNVFSCSVMHEALHNHYTQKSLSLSP
heavy 2: not shown
light 1: not shown
light 2: EVQLLESGGGLVQPGGSLRLSCAASGFTFSSYAMSWVRQAPGKGLEWVSAIIGSGASTYYADSVKGRFTISRDNSKNTLYLQMNSLRAEDTAVYYCAKGWFGGFNYWGQGTLVTVSSASVAAPSVFIFPPSDEQLKSGTASVVCLLNNFYPREAKVQWKVDNALQSGNSQESVTEQDSKDSTYSLSSTLTLSKADYEKHKVYACEVTHQGLSSPVTKSFNRGEC
notes: Bivalent for 4-1BB, monovalent for FAP (cross-Fab fused head to head); also called 4-1BB (20H.9)×FAP 2+1 H2H; anti-4-1BB (20H4.9)×anti-FAP (4B9) 2+1 H2H huIgG1 P329GLALA
As to B2, the AUC in [1] is 40200. The molecule further registered an EC50 in [2] of 1.81 nM. For the same molecule, in test [3], the “AUC … no FAP+ cells” value was determined as 715; the “AUC … with NIH/3T3-huFAP clone 19 cells” value was 109000; the “AUC … with WM-266-4 cells” value is 49400. Moreover, the IC50 in [4] is 1.9 nM. Besides, in [5], the “EC50 of NFκB-luciferase activation curve, with NIH/3T3-huFAP clone 19 cells” value came out at 0.02 nM and the “EC50 of NFκB-luciferase activation curve, with WM-266-4 cells” value was 0.06 nM. In [6], this molecule displayed an EC50 of 0.062 nM.

B3: 2+1 H2H 4-1BB (20H4.9)/CEA (A5H1EL1D) huIgG1 P329GLALA (bispecific antibody)
heavy 1: B2 heavy 1
heavy 2: not shown
light 1: not shown
light 2: EVQLLESGGGLVQPGGSLRLSCAASGFTFTDYYMNWVRQAPGKGLEWLGFIGNKANAYTTEYSASVKGRFTISRDKSKNTLYLQMNSLRAEDTATYYCTRDRGLRFYFDYWGQGTTVTVSSASVAAPSVFIFPPSDEQLKSGTASVVCLLNNFYPREAKVQWKVDNALQSGNSQESVTEQDSKDSTYSLSSTLTLSKADYEKHKVYACEVTHQGLSSPVTKSFNRGEC
notes: also called 2+1 H2H anti-4-1BB (20H4.9)×anti-CEA (A5H1EL1D) huIgG1 P329GLALA
For B3, in test [7], the “AUC of NFκB-luciferase activation curve, no CEA+ cells” value was determined as 1130; the “AUC of NFκB-luciferase activation curve, with CHO-k1-cynoCEACAM5 clone 8” value was 26500; the “AUC of NFκB-luciferase activation curve, with CHO-k1-humanCEACAM5 clone 11” value was 58100; the “AUC of NFκB-luciferase activation curve, with CHO-k1-humanCEACAM5 clone 12” value turned out to be 56600. In addition, in test [8], the “EC50 of NFκB-luciferase activation curve, no CEA+ cells” value amounted to 0.09 nM; the “EC50 of NFκB-luciferase activation curve, with CHO-k1-cynoCEACAM5 clone 8” value came to 0.1 nM; the “EC50 of NFκB-luciferase activation curve, with CHO-k1-humanCEACAM5 clone 11” value was 0.05 nM; the “EC50 of NFκB-luciferase activation curve, with CHO-k1-humanCEACAM5 clone 12” value stood at 0.04 nM. In test [9], this molecule gave an AUC of 614.

B4: 2+1 H2H 4-1BB (20H4.9)/CEA (MFE23) huIgG1 P329GLALA (bispecific antibody)
heavy 1: B2 heavy 1
heavy 2: not shown
light 1: not shown
light 2: QVKLQQSGAELVRSGTSVKLSCTASGFNIKDSYMHWLRQGPEQGLEWIGWIDPENGDTEYAPKFQGKATFTTDTSSNTAYLQLSSLTSEDTAVYYCNEGTPTGPYYFDYWGQGTTVTVSSASVAAPSVFIFPPSDEQLKSGTASVVCLLNNFYPREAKVQWKVDNALQSGNSQESVTEQDSKDSTYSLSSTLTLSKADYEKHKVYACEVTHQGLSSPVTKSFNRGEC
notes: also called 2+1 H2H anti-4-1BB (20H4.9)×anti-CEA (MFE23) huIgG1 P329GLALA
Take B4: in [7], the “AUC of NFκB-luciferase activation curve, no CEA+ cells” value was found to be 774; the “AUC of NFκB-luciferase activation curve, with CHO-k1-cynoCEACAM5 clone 8” value turned out to be 802; the “AUC of NFκB-luciferase activation curve, with CHO-k1-humanCEACAM5 clone 11” value was found to be 76200; the “AUC of NFκB-luciferase activation curve, with CHO-k1-humanCEACAM5 clone 12” value came out at 72300. Further, in test [8], the “EC50 of NFκB-luciferase activation curve, no CEA+ cells” value amounted to 0.1 nM; the “EC50 of NFκB-luciferase activation curve, with CHO-k1-cynoCEACAM5 clone 8” value was found to be 0.14 nM; the “EC50 of NFκB-luciferase activation curve, with CHO-k1-humanCEACAM5 clone 11” value stood at 0.02 nM; the “EC50 of NFκB-luciferase activation curve, with CHO-k1-humanCEACAM5 clone 12” value worked out at 0.02 nM. Moreover, the AUC in test [9] was found to be 169.

B5: 1+1 4-1BB (20H4.9)/PD-L1 human IgG1 PGLALA (bispecific antibody)
heavy 1: B2 heavy 1
heavy 2: not shown
light 1: not shown
light 2: not shown
notes: Monovalent for 4-1BB and for PD-L1; also called 1+1 anti-4-1BB (20H4.9)×anti-PD-L1 huIgG1 P329GLALA; 1+1 H2H 4-1BB (20H4.9)/PD-L1 human IgG1 PGLALA
On to B5, for which the binding result with human 4-1BB Fc(kih) is recorded as “binds”. Also, the “EC50 of NFκB-luciferase activation curve, with MKN45-huPD-L1 cells” value in test [10] is 0.1 nM.

B6: 2+1 H2H 4-1BB (20H4.9)/PD-L1 human IgG1 PGLALA (bispecific antibody)
heavy 1: B2 heavy 1
heavy 2: not shown
light 1: not shown
light 2: not shown
On to B6, for which the “EC50 of NFκB-luciferase activation curve, with MKN45-huPD-L1 cells” value in test [10] was 0.04 nM.

B7: Anti-FAP (4B9) huIgG1 P329GLALA (antibody, V domains shown)
VH: EVQLLESGGGLVQPGGSLRLSCAASGFTFSSYAMSWVRQAPGKGLEWVSAIIGSGASTYYADSVKGRFTISRDNSKNTLYLQMNSLRAEDTAVYYCAKGWFGGFNYWGQGTLVTVSS
VL: EIVLTQSPGTLSLSPGERATLSCRASQSVTSSYLAWYQQKPGQAPRLLINVGSRRATGIPDRFSGSGSGTDFTLTISRLEPEDFAVYYCQQGIMLPPTFGQGTKVEIK
As for B7, in test [3], the “AUC … no FAP+ cells” value is 181; the “AUC … with NIH/3T3-huFAP clone 19 cells” value is 195; the “AUC … with WM-266-4 cells” value was 191.
